Measured values published in the supplement of paper PMC6757056.
± gives the standard deviation of the averaged measurements.

B1: library; a variant is named by its letters at N, in order (parent)
chain: GCUGUCACCGGUGUAUUACCCUAGUGGUCGACCGGUCUGAUGAGUCUNNNNNNAGACGAAACAGC

How the values were obtained:
hypoxanthine [1] = variants of: B1; test: normalized RNA/DNA level with ligand (relative to sTRSVctl = 100) (log10 (% of sTRSVctl)); ligand: hypoxanthine (xanthine aptamer); higher = less ribozyme self-cleavage, higher mRNA level; settings: ligand concentration (+) RNA-Seq: 5 mM, HEK293T, reporter: mCherry (pCS4076), ligand present: yes
In short: (§1)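 Ribozyme switch library plasmids linked to reporters were introduced into HEK293T cells at 4 µg per 6-well well, with ligand, if any, added 1 h before. Total RNA was extracted with EDTA 72 h later, reverse-transcribed, amplified, barcoded and sequenced. RNA level was computed from RNA over DNA reads relative to a spiked-in non-cleaving sequence or the top sequences, then scaled and log-transformed. The top set was 25 sequences, values were ×100 and log10, and the cutoff was ≥100 DNA reads.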

hypoxanthine [2] = variants of: B1; test: normalized RNA/DNA level without ligand (relative to sTRSVctl = 100) (log10 (% of sTRSVctl)); ligand: hypoxanthine (xanthine aptamer); higher = less ribozyme self-cleavage, higher mRNA level; settings: HEK293T, reporter: mCherry (pCS4076), ligand present: no
In short: as §1

Variant | normalized RNA/DNA level with ligand (log10) (hypoxanthine [1]) | normalized RNA/DNA level without ligand (log10) (hypoxanthine [2])
GCUGUCACCGGUGUAUUACCCUAGUGGUCGACCGGUCUGAUGAGUCUAUGGUUAGACGAAACAGC [AUGGUU] | 1.89 ± 0.034 | 1.763 ± 0.012
GCUGUCACCGGUGUAUUACCCUAGUGGUCGACCGGUCUGAUGAGUCUUUGGUCAGACGAAACAGC [UUGGUC] | 1.97 ± 0.034 | 2.006 ± 0.0099
GCUGUCACCGGUGUAUUACCCUAGUGGUCGACCGGUCUGAUGAGUCUUUGGUAAGACGAAACAGC [UUGGUA] | 1.937 ± 0.0068 | 1.885 ± 0.0069
GCUGUCACCGGUGUAUUACCCUAGUGGUCGACCGGUCUGAUGAGUCUUUGGUGAGACGAAACAGC [UUGGUG] | 2.008 ± 0.0026 | 1.81 ± 0.054
GCUGUCACCGGUGUAUUACCCUAGUGGUCGACCGGUCUGAUGAGUCUCUGGUAAGACGAAACAGC [CUGGUA] | 1.93 ± 0.022 | 1.773 ± 0.01
GCUGUCACCGGUGUAUUACCCUAGUGGUCGACCGGUCUGAUGAGUCUCUGGUCAGACGAAACAGC [CUGGUC] | 1.96 ± 0.026 | 1.93 ± 0.023
GCUGUCACCGGUGUAUUACCCUAGUGGUCGACCGGUCUGAUGAGUCUCUGGUUAGACGAAACAGC [CUGGUU] | 2.01 ± 0.024 | 1.858 ± 0.0054
GCUGUCACCGGUGUAUUACCCUAGUGGUCGACCGGUCUGAUGAGUCUCUGGUGAGACGAAACAGC [CUGGUG] | 1.94 ± 0.059 | 1.76 ± 0.022
GCUGUCACCGGUGUAUUACCCUAGUGGUCGACCGGUCUGAUGAGUCUGUGGGCAGACGAAACAGC [GUGGGC] | 1.81 ± 0.1 | 1.33 ± 0.11
GCUGUCACCGGUGUAUUACCCUAGUGGUCGACCGGUCUGAUGAGUCUCUGGACAGACGAAACAGC [CUGGAC] | 1.97 ± 0.03 | 1.87 ± 0.03
GCUGUCACCGGUGUAUUACCCUAGUGGUCGACCGGUCUGAUGAGUCUCUGGAUAGACGAAACAGC [CUGGAU] | 1.94 ± 0.051 | 1.75 ± 0.072
GCUGUCACCGGUGUAUUACCCUAGUGGUCGACCGGUCUGAUGAGUCUCUGGAGAGACGAAACAGC [CUGGAG] | 1.86 ± 0.019 | 1.62 ± 0.037
GCUGUCACCGGUGUAUUACCCUAGUGGUCGACCGGUCUGAUGAGUCUGUGGUCAGACGAAACAGC [GUGGUC] | 1.96 ± 0.038 | 1.79 ± 0.054
GCUGUCACCGGUGUAUUACCCUAGUGGUCGACCGGUCUGAUGAGUCUUUGGGUAGACGAAACAGC [UUGGGU] | 2.014 ± 0.011 | 1.82 ± 0.053
GCUGUCACCGGUGUAUUACCCUAGUGGUCGACCGGUCUGAUGAGUCUUUGGGAAGACGAAACAGC [UUGGGA] | 2.02 ± 0.07 | 1.71 ± 0.053
GCUGUCACCGGUGUAUUACCCUAGUGGUCGACCGGUCUGAUGAGUCUUUGGGCAGACGAAACAGC [UUGGGC] | 2.05 ± 0.032 | 1.914 ± 0.012
GCUGUCACCGGUGUAUUACCCUAGUGGUCGACCGGUCUGAUGAGUCUUUGGGGAGACGAAACAGC [UUGGGG] | 1.91 ± 0.047 | 1.82 ± 0.042
GCUGUCACCGGUGUAUUACCCUAGUGGUCGACCGGUCUGAUGAGUCUAUGGAUAGACGAAACAGC [AUGGAU] | 1.912 ± 0.0082 | 1.6566 ± 0.0015
GCUGUCACCGGUGUAUUACCCUAGUGGUCGACCGGUCUGAUGAGUCUCUGGCUAGACGAAACAGC [CUGGCU] | 1.96 ± 0.077 | 1.915 ± 0.0057
GCUGUCACCGGUGUAUUACCCUAGUGGUCGACCGGUCUGAUGAGUCUCUGGCGAGACGAAACAGC [CUGGCG] | 1.97 ± 0.029 | 1.827 ± 0.0095
GCUGUCACCGGUGUAUUACCCUAGUGGUCGACCGGUCUGAUGAGUCUCUGGCCAGACGAAACAGC [CUGGCC] | 1.98 ± 0.16 | 1.91 ± 0.042

Variant | normalized RNA/DNA level with ligand (log10) (hypoxanthine [1]) | normalized RNA/DNA level without ligand (log10) (hypoxanthine [2])
GCUGUCACCGGUGUAUUACCCUAGUGGUCGACCGGUCUGAUGAGUCUCUGGCAAGACGAAACAGC [CUGGCA] | 1.971 ± 0.0092 | 1.88 ± 0.039
GCUGUCACCGGUGUAUUACCCUAGUGGUCGACCGGUCUGAUGAGUCUUUGGAUAGACGAAACAGC [UUGGAU] | 2.004 ± 0.0096 | 1.8482 ± 4.2e-06
GCUGUCACCGGUGUAUUACCCUAGUGGUCGACCGGUCUGAUGAGUCUUUGGACAGACGAAACAGC [UUGGAC] | 1.95 ± 0.02 | 1.92 ± 0.043
GCUGUCACCGGUGUAUUACCCUAGUGGUCGACCGGUCUGAUGAGUCUUUGGAGAGACGAAACAGC [UUGGAG] | 1.95 ± 0.041 | 1.684 ± 0.0079
GCUGUCACCGGUGUAUUACCCUAGUGGUCGACCGGUCUGAUGAGUCUUUGGCAAGACGAAACAGC [UUGGCA] | 1.966 ± 0.0098 | 1.907 ± 0.018
GCUGUCACCGGUGUAUUACCCUAGUGGUCGACCGGUCUGAUGAGUCUUUGGCCAGACGAAACAGC [UUGGCC] | 1.97 ± 0.066 | 2.013 ± 0.0026
GCUGUCACCGGUGUAUUACCCUAGUGGUCGACCGGUCUGAUGAGUCUUUGGCUAGACGAAACAGC [UUGGCU] | 1.98 ± 0.042 | 1.988 ± 0.013
GCUGUCACCGGUGUAUUACCCUAGUGGUCGACCGGUCUGAUGAGUCUCUGGGAAGACGAAACAGC [CUGGGA] | 2.03 ± 0.061 | 1.857 ± 0.015
GCUGUCACCGGUGUAUUACCCUAGUGGUCGACCGGUCUGAUGAGUCUCUGGGUAGACGAAACAGC [CUGGGU] | 2 ± 0.069 | 1.881 ± 0.005
GCUGUCACCGGUGUAUUACCCUAGUGGUCGACCGGUCUGAUGAGUCUCUGGGCAGACGAAACAGC [CUGGGC] | 1.98 ± 0.047 | 1.902 ± 0.0037
GCUGUCACCGGUGUAUUACCCUAGUGGUCGACCGGUCUGAUGAGUCUAUGGGCAGACGAAACAGC [AUGGGC] | 1.94 ± 0.064 | 1.81 ± 0.022
GCUGUCACCGGUGUAUUACCCUAGUGGUCGACCGGUCUGAUGAGUCUAUGGGUAGACGAAACAGC [AUGGGU] | 1.88 ± 0.066 | 1.534 ± 0.0046
GCUGUCACCGGUGUAUUACCCUAGUGGUCGACCGGUCUGAUGAGUCUAUGGGGAGACGAAACAGC [AUGGGG] | 1.88 ± 0.08 | 1.4 ± 0.081
GCUGUCACCGGUGUAUUACCCUAGUGGUCGACCGGUCUGAUGAGUCUGUGGACAGACGAAACAGC [GUGGAC] | 1.889 ± 0.011 | 1.58 ± 0.068
GCUGUCACCGGUGUAUUACCCUAGUGGUCGACCGGUCUGAUGAGUCUGUGGAGAGACGAAACAGC [GUGGAG] | 1.79 ± 0.028 | 1.28 ± 0.1
GCUGUCACCGGUGUAUUACCCUAGUGGUCGACCGGUCUGAUGAGUCUAUGGCUAGACGAAACAGC [AUGGCU] | 1.89 ± 0.026 | 1.86 ± 0.031
GCUGUCACCGGUGUAUUACCCUAGUGGUCGACCGGUCUGAUGAGUCUAUGGCCAGACGAAACAGC [AUGGCC] | 1.959 ± 0.015 | 1.883 ± 0.014
GCUGUCACCGGUGUAUUACCCUAGUGGUCGACCGGUCUGAUGAGUCUAUGGCAAGACGAAACAGC [AUGGCA] | 1.92 ± 0.035 | 1.787 ± 0.017
GCUGUCACCGGUGUAUUACCCUAGUGGUCGACCGGUCUGAUGAGUCUGUGGCCAGACGAAACAGC [GUGGCC] | 1.98 ± 0.027 | 1.88 ± 0.023
GCUGUCACCGGUGUAUUACCCUAGUGGUCGACCGGUCUGAUGAGUCUGUGGCUAGACGAAACAGC [GUGGCU] | 1.96 ± 0.042 | 1.881 ± 0.0077
GCUGUCACCGGUGUAUUACCCUAGUGGUCGACCGGUCUGAUGAGUCUGUGGCAAGACGAAACAGC [GUGGCA] | 1.98 ± 0.02 | 1.83 ± 0.072
